Data taken from patent US12098198 (ABION, dated 2024).

Legend:
human claudin 3 [1] = target: T1, human claudin 3 (human, UniProt O15551 1-220); assay: LigandTracer Green, FITC-conjugated antibody on hCLDN3/TOV-112D cells against TOV-112D, 1:1 two state model
T1 construct: cell lysate in the immunoprecipitation; also called CLDN3; hCLDN3
T1 sequence: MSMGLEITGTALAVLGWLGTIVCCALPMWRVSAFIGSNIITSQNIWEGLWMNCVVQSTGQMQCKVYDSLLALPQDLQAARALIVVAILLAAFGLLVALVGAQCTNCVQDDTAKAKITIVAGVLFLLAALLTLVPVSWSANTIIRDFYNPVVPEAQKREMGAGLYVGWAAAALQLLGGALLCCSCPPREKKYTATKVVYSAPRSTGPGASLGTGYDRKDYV

human claudin 3 [2] = target: T1, human claudin 3; assay: LigandTracer Green, FITC-conjugated antibody on hCLDN3/TOV-112D cells against TOV-112D, 1:1 two state model (ka1)
human claudin 3 [3] = target: T1, human claudin 3; assay: LigandTracer Green, FITC-conjugated antibody on hCLDN3/TOV-112D cells against TOV-112D, 1:1 two state model (kd1)
human claudin 3 [4] = target: T1, human claudin 3; assay: LigandTracer Green, FITC-conjugated antibody on hCLDN3/HEK293 cells against HEK293, 1:1 two state model (ka1)
human claudin 3 [5] = target: T1, human claudin 3; assay: LigandTracer Green, FITC-conjugated antibody on hCLDN3/HEK293 cells against HEK293, 1:1 two state model
human claudin 3 [6] = target: T1, human claudin 3; assay: LigandTracer Green, FITC-conjugated antibody on hCLDN3/HEK293 cells against HEK293, 1:1 two state model (kd1)

B1: 4G3 IgG antibody (antibody, V domains shown)
VH: EVQLLESGGGLVQPGGSLRLSCAASGFTFSSYAMSWVRQAPGKGLEWVSIINPSGASTSHAQRFQGRFTISRDNSKNTLYLQMNSLRAEDTAVYYCARYGRYGSFDIWGQGTLVTVSS
VL: QSVLTQPPSASGTPGQRVTISCSGSTSNIGRNYVSWYQQLPGTAPKLLIYDTSNKHFGVPDRFSGSKSGTSASLAISGLRSEDEADYYCQSYDSSKVVFGGGTKLTVL
Human claudin 3 [1]
  Kd: 2.35 nM
Human claudin 3 [2]
  kon: 47400 M⁻¹ s⁻¹
Human claudin 3 [3]
  koff: 0.000337 s⁻¹
Human claudin 3 [4]
  kon: 46600 M⁻¹ s⁻¹
Human claudin 3 [5]
  Kd: 4.03 nM
Human claudin 3 [6]
  koff: 0.000671 s⁻¹
